The target in this assay is T1, GST-TRN-SR2 (transportin-SR2) (UniProt Q9Y5L0-2 1-923).
T1 construct: transportin-SR2 (TRN-SR2, TNPO3, transportin 3); also called TNPO3; transportin 3; source: recombinant, expressed from pGEX-6P-2, purified using Glutathione Sepharose Resin
T1 sequence (looked up): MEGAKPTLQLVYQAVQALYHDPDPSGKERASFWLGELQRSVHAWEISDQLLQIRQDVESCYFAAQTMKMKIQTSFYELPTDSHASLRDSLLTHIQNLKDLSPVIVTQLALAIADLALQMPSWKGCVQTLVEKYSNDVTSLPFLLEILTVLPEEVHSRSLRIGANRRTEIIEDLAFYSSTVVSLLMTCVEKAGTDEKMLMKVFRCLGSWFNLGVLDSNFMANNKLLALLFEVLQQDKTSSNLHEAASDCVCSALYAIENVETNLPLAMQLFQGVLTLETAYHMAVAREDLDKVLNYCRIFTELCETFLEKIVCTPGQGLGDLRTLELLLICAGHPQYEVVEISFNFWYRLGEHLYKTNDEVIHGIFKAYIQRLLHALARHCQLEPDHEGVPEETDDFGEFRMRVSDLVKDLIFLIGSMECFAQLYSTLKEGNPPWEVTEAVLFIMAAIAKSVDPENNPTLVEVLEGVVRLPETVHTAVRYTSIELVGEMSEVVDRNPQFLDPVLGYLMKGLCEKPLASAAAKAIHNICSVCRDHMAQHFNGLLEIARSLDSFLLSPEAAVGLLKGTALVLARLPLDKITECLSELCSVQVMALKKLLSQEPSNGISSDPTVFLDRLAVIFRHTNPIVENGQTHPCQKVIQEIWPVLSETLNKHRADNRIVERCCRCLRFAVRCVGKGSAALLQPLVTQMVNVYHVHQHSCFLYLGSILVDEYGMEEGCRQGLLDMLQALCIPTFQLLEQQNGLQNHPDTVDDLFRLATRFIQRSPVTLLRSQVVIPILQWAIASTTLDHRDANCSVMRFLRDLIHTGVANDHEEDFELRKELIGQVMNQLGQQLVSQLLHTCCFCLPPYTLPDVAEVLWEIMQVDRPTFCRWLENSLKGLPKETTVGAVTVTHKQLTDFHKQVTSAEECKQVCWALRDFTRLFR
Description: AlphaScreen or HTRF; 10 nM GST-TRN-SR2 titrated with 1 to 150 nM His6-tagged protein; glutathione donor and nickel-chelate acceptor beads; 25 mM Tris/HCl pH 7.4, 150 mM NaCl, 1 mM MgCl2, 0.1% Tween-20, 0.1% BSA; 1 h at 4°C, then 1.5 h at room temperature with beads; apparent Kd. To be noted: both partners purified.

Two molecules from article PMC3041740, “Interplay between HIV Entry and Transportin-SR2 Dependency” (Retrovirology, 2011) can be followed below.

B1: MLV integrase, C-terminally His6-tagged (enzyme)
chain: IENSSPYTSEHFHYTVTDIKDLTKLGAIYDKTKKYWVYQGKPVMPDQFTFELLDFLHQLTHLSFSKMKALLERSHSPYYMLNRDRTLKNITETCKACAQVNASKSAVKQGTRVRGHRPGTHWEIDFTEIKPGLYGYKYLLVFIDTFSGWIEAFPTKKETAKVVTKKLLEEIFPRFGMPQVLGTDNGPAFVSKVSQTVADLLGIDWKLHCAYRPQSSGQVERMNRTIKETLTKLTLATGSRDWVLLLPLALYRARNTPGPHGLTPYEILYGAPPPLVNFPDPDMTRVTNSPSLQAHLQALYLVQHEVWRPLAAAYQEQLDRPVVPHPYRVGDTVWVRRHQTKNLEPRWKGPYTVLLTTPTALKVDGIAAWIHAAHVKAADPGGGPSSRLTWRVQRSQNPLKIRLTREAP
notes: integrase (IN) of murine leukemia virus (MLV); also called His6-tagged MLV IN; not shown: His6, C-terminal, kept
Turning to B1, the Kd stood at 17.5 ± 0.5 nM.

B2: HIV-1 integrase, C-terminally His6-tagged (enzyme)
chain: FLDGIDKAQEEHEKYHSNWRAMASDFNLPPVVAKEIVASCDKCQLKGEAMHGQVDCSPGIWQLDCTHLEGKVILVAVHVASGYIEAEVIPAETGQETAYFLLKLAGRWPVKTVHTDNGSNFTSTTVKAACWWAGIKQEFGIPYNPQSQGVIESMNKELKKIIGQVRDQAEHLKTAVQMAVFIHNFKRKGGIGGYSAGERIVDIIATDIQTKELQKQITKIQNFRVYYRDSRDPVWKGPAKLLWKGEGAVVIQDNSDIKVVPRRKAKIIRDYGKQMAGDDCVASRQDED
As to B2, the Kd came out at 36.3 ± 2.3 nM.
